Data on one molecule can be found in paper doi:10.1101/2024.05.23.595592.

The term Kd denotes the constant that tells how readily two partners part at equilibrium. High values mean lower affinity, low ones higher affinity.

The target of the experiment is TREM2 R77D, biotinylated (human) (UniProt Q9NZC2). In words: BLI.
TREM2 R77D, biotinylated (human), sequence (Q9NZC2 19-230 R77D): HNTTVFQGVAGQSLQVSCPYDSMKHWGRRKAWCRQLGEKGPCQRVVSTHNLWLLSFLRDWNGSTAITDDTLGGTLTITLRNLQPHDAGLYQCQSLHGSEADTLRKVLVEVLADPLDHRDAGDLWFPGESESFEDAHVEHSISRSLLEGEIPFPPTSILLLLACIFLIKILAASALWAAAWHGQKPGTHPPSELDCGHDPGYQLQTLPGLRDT

B1: Human IL-34 (19-241) (ligand)
chain: LGNEPLEMWPLTQNEECTVTGFLRDKLQYRSRLQYMKHYFPINYKISVPYEGVFRIANVTRLQRAQVSERELRYLWVLVSLSATESVQDVLLEGHPSWKYLQEVETLLLNVQQGLTDVEVSPKVESVLSLLNAPGPNLKLVRPKALLDNCFRVMELLYCSCCKQSSVLNWQDCEVPSPQSCSPEPSLQYAATQLYPPPPWSPSSPPHSTGSVRPVRAQGEGLL
In turn, B1 showed a Kd of 114 nM.
